# Target: GAPDH (human (endogenous in U2OS)) (UniProt P04406)
# Experiment: cross-linking; titration of formaldehyde on intact adherent U2OS cells, quenched with Tris, extracted in SDS denaturing buffer, immunoblot of total cell lysates; 6% formaldehyde optimal
# Sequence of GAPDH, P04406 1-335 (enzyme; other documents disagree on this pair) (P04406 whole entry): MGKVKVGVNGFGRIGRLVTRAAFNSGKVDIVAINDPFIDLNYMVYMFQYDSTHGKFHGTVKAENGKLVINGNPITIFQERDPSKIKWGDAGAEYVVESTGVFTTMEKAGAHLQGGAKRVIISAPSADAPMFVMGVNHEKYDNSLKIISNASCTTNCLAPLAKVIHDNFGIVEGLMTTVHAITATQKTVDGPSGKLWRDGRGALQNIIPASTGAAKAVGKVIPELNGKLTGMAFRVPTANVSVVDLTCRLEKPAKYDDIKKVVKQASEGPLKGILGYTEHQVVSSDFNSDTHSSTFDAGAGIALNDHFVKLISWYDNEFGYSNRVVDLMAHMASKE
substance,measurement,value
"GAPDH, P04406 1-335 (enzyme; other documents disagree on this pair)",stoichiometry N,4
